Source: US20090053225A1 (QUARK PHARMACEUTICALS, published 2009)
Blank lines part the entries; values can stand above or below the binder they belong to.

How the values were obtained:
[1] = molecular target: T1, CD59 purified from human erythrocytes (human, UniProt P13987 26-102); test: ELISA with phage and soluble scFv on coated purified antigen
T1 construct: mature; Native protein purified from red cells; coated on plates for ELISA, or incubated with guinea pig erythrocytes (GPE-CD59) for the reactive lysis test
T1 sequence (looked up): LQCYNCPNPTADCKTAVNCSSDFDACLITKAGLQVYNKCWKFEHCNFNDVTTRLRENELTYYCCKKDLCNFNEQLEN
Experimental: (§1) Microtiter plates were coated with 100 μl of the various CRPs (10 μg/ml) followed by 100 μl of phage suspension in MPBS. Anti-M13 peroxidase conjugated mAb was used as a secondary antibody. Data represent mean values±SD of three different experiments.
(§2) The specificity of the selected clones was assessed by ELISA using both phage and soluble scFv (FIG. 1).

[2] = molecular target: T2, CD55 purified from human erythrocytes (human, UniProt P08174 35-353); test: as above
T2 construct: mature; Native protein purified from red cells; coated on plates for ELISA, or incubated with antibody-sensitised sheep erythrocytes (EA-CD55) for the hemolytic assay; also called decay-accelerating factor; DAF
T2 sequence (looked up): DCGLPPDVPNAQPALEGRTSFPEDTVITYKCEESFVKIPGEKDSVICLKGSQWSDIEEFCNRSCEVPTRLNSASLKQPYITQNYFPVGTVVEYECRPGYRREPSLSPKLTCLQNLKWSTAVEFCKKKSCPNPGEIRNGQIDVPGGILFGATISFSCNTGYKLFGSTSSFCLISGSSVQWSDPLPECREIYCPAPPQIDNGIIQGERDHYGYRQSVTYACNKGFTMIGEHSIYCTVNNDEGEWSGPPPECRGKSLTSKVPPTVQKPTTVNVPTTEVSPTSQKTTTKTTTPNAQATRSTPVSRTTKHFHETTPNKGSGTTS
Experimental: as §1, §2

binding result [1]: no binding
B1: scFv TS-55 (anti-CD55 clone) (scFv)
scFv: SSELTQEPAVSVALGQTVSITCQGDSLRSYYASWYQQKPGQAPIPVIYGKNNRPSGIPDRFSGSSSGNTASLTITGAQAEDEADYYCSSRDNRGTHRWVFGGGTKLTVLSGGSTITSYNVYYTKLSSSGTQVNLRESGGGLVQPGRSLRLSCAASGFTFDDYAMHWVRQAPGKGLEWVSGISWNSGSIGYADSVKGRFTISRDNAKNSLYLQMNSLRAEDTALYYCAKDRSDRGRLLDYWGLGTLVTVS
notes: also called Clone anti CD 55; anti-CD55 scFv

binding result [2]: no binding
B2: scFv TS-59 (anti-CD59 clone) (scFv)
scFv: DIVLTQSPDSLAVSLGERATINCKSSQSVLYSSNNKNYLAWYQQKPGQPPKLLIYWASTRESGVPDRFSGSGSGTDFTPAISSLQAEDVAVYYCQQYYSTPQLTFGGGTKVDIKSGGSTITSYNVYYTKLSSSGTQVQLQQSGGGVVQPGRSLGLSCAASGFTFSSYGMNWVRQAPGKGLEWVSYISSSSSTIYYADSVKGRFTISRDNSKNTLYLQMNSLRAEDTAVYYCARGPGMDVWGQGTTVTVS
notes: also called Clone anti CD 59; anti-CD59 scFv
